Data on 6 molecules can be found in patent US20260015399A1 (Boehringer Ingelheim, published 2026).

T1: human NPY2 receptor (human, UniProt P49146 1-381)
T1 construct: whole, on cells; also called hNPY2-R; hNPY2R
T1 sequence (looked up): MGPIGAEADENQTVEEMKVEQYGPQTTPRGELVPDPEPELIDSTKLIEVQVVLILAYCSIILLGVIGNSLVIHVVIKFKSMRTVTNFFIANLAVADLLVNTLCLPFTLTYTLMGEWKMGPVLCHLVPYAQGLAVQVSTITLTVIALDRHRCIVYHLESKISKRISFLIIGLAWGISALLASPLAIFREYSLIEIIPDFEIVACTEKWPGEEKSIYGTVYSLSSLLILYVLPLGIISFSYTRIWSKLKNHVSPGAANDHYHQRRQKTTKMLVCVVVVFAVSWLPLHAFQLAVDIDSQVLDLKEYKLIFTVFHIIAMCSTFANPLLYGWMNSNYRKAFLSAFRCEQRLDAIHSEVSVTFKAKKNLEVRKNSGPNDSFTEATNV

B1: Compound 185 (peptide)
peptide: Isovaleryl-APAK([Ahx-γGlu-C18 diacid])PEEDASEEELQRYYVSLRHYYNWLTRQRY-NH2
SMILES: CC(C)CC(=O)N[C@@H](C)C(=O)N1CCC[C@H]1C(=O)N[C@@H](C)C(=O)N[C@@H](CCCCNC(=O)CCCCCNC(=O)CC[C@H](NC(=O)CCCCCCCCCCCCCCCCC(=O)O)C(=O)O)C(=O)N1CCC[C@H]1C(=O)N[C@@H](CCC(=O)O)C(=O)N[C@@H](CCC(=O)O)C(=O)N[C@@H](CC(=O)O)C(=O)N[C@@H](C)C(=O)N[C@@H](CO)C(=O)N[C@@H](CCC(=O)O)C(=O)N[C@@H](CCC(=O)O)C(=O)N[C@@H](CCC(=O)O)C(=O)N[C@@H](CC(C)C)C(=O)N[C@@H](CCC(N)=O)C(=O)N[C@@H](CCCNC(=N)N)C(=O)N[C@@H](Cc1ccc(O)cc1)C(=O)N[C@@H](Cc1ccc(O)cc1)C(=O)N[C@H](C(=O)N[C@@H](CO)C(=O)N[C@@H](CC(C)C)C(=O)N[C@@H](CCCNC(=N)N)C(=O)N[C@@H](Cc1c[nH]cn1)C(=O)N[C@@H](Cc1ccc(O)cc1)C(=O)N[C@@H](Cc1ccc(O)cc1)C(=O)N[C@@H](CC(N)=O)C(=O)N[C@@H](Cc1c[nH]c2ccccc12)C(=O)N[C@@H](CC(C)C)C(=O)N[C@H](C(=O)N[C@@H](CCCNC(=N)N)C(=O)N[C@@H](CCC(N)=O)C(=O)N[C@@H](CCCNC(=N)N)C(=O)N[C@@H](Cc1ccc(O)cc1)C(N)=O)[C@@H](C)O)C(C)C
B2: Compound 192 (peptide)
peptide: Isovaleryl-APEK([Ahx-γGlu-C18 diacid])PEAPASPEELQRYYVSLRHYYNWLTRQRY-NH2
SMILES: CC(C)CC(=O)N[C@@H](C)C(=O)N1CCC[C@H]1C(=O)N[C@@H](CCC(=O)O)C(=O)N[C@@H](CCCCNC(=O)CCCCCNC(=O)CC[C@H](NC(=O)CCCCCCCCCCCCCCCCC(=O)O)C(=O)O)C(=O)N1CCC[C@H]1C(=O)N[C@@H](CCC(=O)O)C(=O)N[C@@H](C)C(=O)N1CCC[C@H]1C(=O)N[C@@H](C)C(=O)N[C@@H](CO)C(=O)N1CCC[C@H]1C(=O)N[C@@H](CCC(=O)O)C(=O)N[C@@H](CCC(=O)O)C(=O)N[C@@H](CC(C)C)C(=O)N[C@@H](CCC(N)=O)C(=O)N[C@@H](CCCNC(=N)N)C(=O)N[C@@H](Cc1ccc(O)cc1)C(=O)N[C@@H](Cc1ccc(O)cc1)C(=O)N[C@H](C(=O)N[C@@H](CO)C(=O)N[C@@H](CC(C)C)C(=O)N[C@@H](CCCNC(=N)N)C(=O)N[C@@H](Cc1c[nH]cn1)C(=O)N[C@@H](Cc1ccc(O)cc1)C(=O)N[C@@H](Cc1ccc(O)cc1)C(=O)N[C@@H](CC(N)=O)C(=O)N[C@@H](Cc1c[nH]c2ccccc12)C(=O)N[C@@H](CC(C)C)C(=O)N[C@H](C(=O)N[C@@H](CCCNC(=N)N)C(=O)N[C@@H](CCC(N)=O)C(=O)N[C@@H](CCCNC(=N)N)C(=O)N[C@@H](Cc1ccc(O)cc1)C(N)=O)[C@@H](C)O)C(C)C
B3: Compound 188 (peptide)
peptide: Isovaleryl-APEK([Ahx-γGlu-C18 diacid])PEEDATPEELQRYYVSLRHYYNWLQRQRY-NH2
SMILES: CC(C)CC(=O)N[C@@H](C)C(=O)N1CCC[C@H]1C(=O)N[C@@H](CCC(=O)O)C(=O)N[C@@H](CCCCNC(=O)CCCCCNC(=O)CC[C@H](NC(=O)CCCCCCCCCCCCCCCCC(=O)O)C(=O)O)C(=O)N1CCC[C@H]1C(=O)N[C@@H](CCC(=O)O)C(=O)N[C@@H](CCC(=O)O)C(=O)N[C@@H](CC(=O)O)C(=O)N[C@@H](C)C(=O)N[C@H](C(=O)N1CCC[C@H]1C(=O)N[C@@H](CCC(=O)O)C(=O)N[C@@H](CCC(=O)O)C(=O)N[C@@H](CC(C)C)C(=O)N[C@@H](CCC(N)=O)C(=O)N[C@@H](CCCNC(=N)N)C(=O)N[C@@H](Cc1ccc(O)cc1)C(=O)N[C@@H](Cc1ccc(O)cc1)C(=O)N[C@H](C(=O)N[C@@H](CO)C(=O)N[C@@H](CC(C)C)C(=O)N[C@@H](CCCNC(=N)N)C(=O)N[C@@H](Cc1c[nH]cn1)C(=O)N[C@@H](Cc1ccc(O)cc1)C(=O)N[C@@H](Cc1ccc(O)cc1)C(=O)N[C@@H](CC(N)=O)C(=O)N[C@@H](Cc1c[nH]c2ccccc12)C(=O)N[C@@H](CC(C)C)C(=O)N[C@@H](CCC(N)=O)C(=O)N[C@@H](CCCNC(=N)N)C(=O)N[C@@H](CCC(N)=O)C(=O)N[C@@H](CCCNC(=N)N)C(=O)N[C@@H](Cc1ccc(O)cc1)C(N)=O)C(C)C)[C@@H](C)O
B4: Compound 190 (peptide)
peptide: Isovaleryl-APAK([Ahx-γGlu-C18 diacid])PEEDATPEELQRYYISLRHYYNWLTRQRY-NH2
SMILES: CC[C@H](C)[C@H](NC(=O)[C@H](Cc1ccc(O)cc1)NC(=O)[C@H](Cc1ccc(O)cc1)NC(=O)[C@H](CCCNC(=N)N)NC(=O)[C@H](CCC(N)=O)NC(=O)[C@H](CC(C)C)NC(=O)[C@H](CCC(=O)O)NC(=O)[C@H](CCC(=O)O)NC(=O)[C@@H]1CCCN1C(=O)[C@@H](NC(=O)[C@H](C)NC(=O)[C@H](CC(=O)O)NC(=O)[C@H](CCC(=O)O)NC(=O)[C@H](CCC(=O)O)NC(=O)[C@@H]1CCCN1C(=O)[C@H](CCCCNC(=O)CCCCCNC(=O)CC[C@H](NC(=O)CCCCCCCCCCCCCCCCC(=O)O)C(=O)O)NC(=O)[C@H](C)NC(=O)[C@@H]1CCCN1C(=O)[C@H](C)NC(=O)CC(C)C)[C@@H](C)O)C(=O)N[C@@H](CO)C(=O)N[C@@H](CC(C)C)C(=O)N[C@@H](CCCNC(=N)N)C(=O)N[C@@H](Cc1c[nH]cn1)C(=O)N[C@@H](Cc1ccc(O)cc1)C(=O)N[C@@H](Cc1ccc(O)cc1)C(=O)N[C@@H](CC(N)=O)C(=O)N[C@@H](Cc1c[nH]c2ccccc12)C(=O)N[C@@H](CC(C)C)C(=O)N[C@H](C(=O)N[C@@H](CCCNC(=N)N)C(=O)N[C@@H](CCC(N)=O)C(=O)N[C@@H](CCCNC(=N)N)C(=O)N[C@@H](Cc1ccc(O)cc1)C(N)=O)[C@@H](C)O
B5: Compound 187 (peptide)
peptide: Isovaleryl-APEK([Ahx-γGlu-C18 diacid])PEEDATPEEPQRYYVSLRHYYNWLTRQRY-NH2
SMILES: CC(C)CC(=O)N[C@@H](C)C(=O)N1CCC[C@H]1C(=O)N[C@@H](CCC(=O)O)C(=O)N[C@@H](CCCCNC(=O)CCCCCNC(=O)CC[C@H](NC(=O)CCCCCCCCCCCCCCCCC(=O)O)C(=O)O)C(=O)N1CCC[C@H]1C(=O)N[C@@H](CCC(=O)O)C(=O)N[C@@H](CCC(=O)O)C(=O)N[C@@H](CC(=O)O)C(=O)N[C@@H](C)C(=O)N[C@H](C(=O)N1CCC[C@H]1C(=O)N[C@@H](CCC(=O)O)C(=O)N[C@@H](CCC(=O)O)C(=O)N1CCC[C@H]1C(=O)N[C@@H](CCC(N)=O)C(=O)N[C@@H](CCCNC(=N)N)C(=O)N[C@@H](Cc1ccc(O)cc1)C(=O)N[C@@H](Cc1ccc(O)cc1)C(=O)N[C@H](C(=O)N[C@@H](CO)C(=O)N[C@@H](CC(C)C)C(=O)N[C@@H](CCCNC(=N)N)C(=O)N[C@@H](Cc1c[nH]cn1)C(=O)N[C@@H](Cc1ccc(O)cc1)C(=O)N[C@@H](Cc1ccc(O)cc1)C(=O)N[C@@H](CC(N)=O)C(=O)N[C@@H](Cc1c[nH]c2ccccc12)C(=O)N[C@@H](CC(C)C)C(=O)N[C@H](C(=O)N[C@@H](CCCNC(=N)N)C(=O)N[C@@H](CCC(N)=O)C(=O)N[C@@H](CCCNC(=N)N)C(=O)N[C@@H](Cc1ccc(O)cc1)C(N)=O)[C@@H](C)O)C(C)C)[C@@H](C)O
B6: Compound 191 (peptide)
peptide: Isovaleryl-APEK([Ahx-γGlu-C18 diacid])PEEDATPEEIQRYYESLRHYYNWLTRQRY-NH2
SMILES: CC[C@H](C)[C@H](NC(=O)[C@H](CCC(=O)O)NC(=O)[C@H](CCC(=O)O)NC(=O)[C@@H]1CCCN1C(=O)[C@@H](NC(=O)[C@H](C)NC(=O)[C@H](CC(=O)O)NC(=O)[C@H](CCC(=O)O)NC(=O)[C@H](CCC(=O)O)NC(=O)[C@@H]1CCCN1C(=O)[C@H](CCCCNC(=O)CCCCCNC(=O)CC[C@H](NC(=O)CCCCCCCCCCCCCCCCC(=O)O)C(=O)O)NC(=O)[C@H](CCC(=O)O)NC(=O)[C@@H]1CCCN1C(=O)[C@H](C)NC(=O)CC(C)C)[C@@H](C)O)C(=O)N[C@@H](CCC(N)=O)C(=O)N[C@@H](CCCNC(=N)N)C(=O)N[C@@H](Cc1ccc(O)cc1)C(=O)N[C@@H](Cc1ccc(O)cc1)C(=O)N[C@@H](CCC(=O)O)C(=O)N[C@@H](CO)C(=O)N[C@@H](CC(C)C)C(=O)N[C@@H](CCCNC(=N)N)C(=O)N[C@@H](Cc1c[nH]cn1)C(=O)N[C@@H](Cc1ccc(O)cc1)C(=O)N[C@@H](Cc1ccc(O)cc1)C(=O)N[C@@H](CC(N)=O)C(=O)N[C@@H](Cc1c[nH]c2ccccc12)C(=O)N[C@@H](CC(C)C)C(=O)N[C@H](C(=O)N[C@@H](CCCNC(=N)N)C(=O)N[C@@H](CCC(N)=O)C(=O)N[C@@H](CCCNC(=N)N)C(=O)N[C@@H](Cc1ccc(O)cc1)C(N)=O)[C@@H](C)O

*1 amine or outer side, *2 acyl side, *3 side chain or, on linkers, in order; H or OH if unused. Side-chain parts run from the residue outwards. The star is where a group is joined. C18 diacid = O=C(O)CCCCCCCCCCCCCCCCC(=O)*; γGlu = O=C(O)[C@H](CCC(=O)[*:2])N[*:1]; Isovaleryl = CC(C)CC(=O)*; Ahx = NCCCCCC(=O)O

The assay concerns the target T1, human NPY2 receptor. As to the kind of experiment: RLB: displacement of 125I-PYY(1-36) from hNPY2R membranes. Background: Loss of bound radioactivity is the signal in a displacement assay; it reports binding, not function.
What is called Ki is the equilibrium dissociation constant of an inhibitor or competing ligand from its target. A low value points to a stronger hold on the target. In the case of B1, the affinity, expressed as Ki, was 2.06 nM. This lies in the single-digit nanomolar range. To B2 belongs 0.74 nM; to B3, 5.46 nM. For B4 the value was 1.95 nM; for B5, 15.3 nM. To B6 belongs 8.32 nM.
